Results reported in patent US20250076311A1 (Chugai, published 2025).

Tests used:
[1] = molecular target: T1, human FcγRIIaH extracellular domain with C-terminal His-tag (human, UniProt P12318 34-217); assay: SPR (Biacore), antibody captured, FcgR analyte
T1 construct: also called human FcgRIIaH; FcγRIIa (type H)
T1 sequence: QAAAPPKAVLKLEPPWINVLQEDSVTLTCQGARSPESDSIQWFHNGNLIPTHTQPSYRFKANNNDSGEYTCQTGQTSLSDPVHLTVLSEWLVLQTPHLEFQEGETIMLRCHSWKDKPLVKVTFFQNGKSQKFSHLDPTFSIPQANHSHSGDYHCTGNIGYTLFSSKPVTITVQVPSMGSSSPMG

[2] = molecular target: T2, human FcγRIIb extracellular domain with C-terminal His-tag (human, UniProt P31994 43-217); assay: SPR (Biacore), KD of SG1 / KD of variant
T2 construct: also called human FcgRIIb
T2 sequence: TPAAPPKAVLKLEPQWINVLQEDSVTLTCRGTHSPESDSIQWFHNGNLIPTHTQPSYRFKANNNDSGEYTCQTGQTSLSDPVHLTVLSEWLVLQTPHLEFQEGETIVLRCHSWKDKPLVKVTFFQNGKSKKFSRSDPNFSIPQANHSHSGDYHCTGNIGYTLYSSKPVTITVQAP

[3] = molecular target: T3, cynomolgus monkey FcγRIIb extracellular domain, His-tagged (cynomolgus monkey); assay: SPR (Biacore), 25C, FcgR bound per antibody captured
T3 construct: also called cyno FcgRIIb
T3 chain: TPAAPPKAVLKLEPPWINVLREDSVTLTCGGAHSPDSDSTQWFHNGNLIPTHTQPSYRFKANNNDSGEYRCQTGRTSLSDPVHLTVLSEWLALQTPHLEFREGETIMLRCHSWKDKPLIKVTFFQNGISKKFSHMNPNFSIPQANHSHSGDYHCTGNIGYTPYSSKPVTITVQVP
Method: (§1) In the next step, cross-reactivity of these substitutions to cynoFcγRs was evaluated.
(§2) The value of the amount of FcγR binding was obtained by dividing the amount of FcγR bound by the amount of each antibody captured.

[4] = molecular target: T4, cynomolgus monkey FcγRIIa2 extracellular domain, His-tagged (cynomolgus monkey); assay: as above
T4 construct: also called cyno FcgRIIa2
T4 chain: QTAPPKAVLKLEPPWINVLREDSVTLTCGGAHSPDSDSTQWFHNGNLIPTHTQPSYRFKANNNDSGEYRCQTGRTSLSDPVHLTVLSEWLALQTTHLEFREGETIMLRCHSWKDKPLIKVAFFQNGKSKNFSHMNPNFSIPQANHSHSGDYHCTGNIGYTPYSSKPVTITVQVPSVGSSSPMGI
Method: as §1, §2

[5] = molecular target: T5, cynomolgus monkey FcγRIIa3 extracellular domain, His-tagged (cynomolgus monkey); assay: as above
T5 construct: also called cyno FcgRIIa3
T5 chain: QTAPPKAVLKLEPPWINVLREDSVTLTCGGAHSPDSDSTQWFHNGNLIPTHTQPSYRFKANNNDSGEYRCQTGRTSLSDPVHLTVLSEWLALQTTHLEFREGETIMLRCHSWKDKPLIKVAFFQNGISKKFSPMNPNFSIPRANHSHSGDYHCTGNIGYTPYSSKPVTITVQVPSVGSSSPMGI
Method: as §1, §2

[6] = molecular target: T6, cynomolgus monkey FcγRIIIaS extracellular domain, His-tagged (cynomolgus monkey, UniProt Q8SPW2 21-206 at identity 1.00)); assay: as above
T6 construct: also called cyno FcgRIIIaS
T6 chain: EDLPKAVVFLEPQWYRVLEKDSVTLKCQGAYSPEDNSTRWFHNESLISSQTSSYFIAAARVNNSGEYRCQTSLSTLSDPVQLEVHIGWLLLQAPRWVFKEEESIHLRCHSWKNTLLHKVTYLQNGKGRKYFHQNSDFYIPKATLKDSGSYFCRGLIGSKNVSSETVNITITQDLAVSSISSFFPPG
Method: as §1, §2

[7] = molecular target: T7, cynomolgus monkey FcγRIIa1 extracellular domain, His-tagged (cynomolgus monkey); assay: as above
T7 construct: also called cyno FcgRIIa1
T7 chain: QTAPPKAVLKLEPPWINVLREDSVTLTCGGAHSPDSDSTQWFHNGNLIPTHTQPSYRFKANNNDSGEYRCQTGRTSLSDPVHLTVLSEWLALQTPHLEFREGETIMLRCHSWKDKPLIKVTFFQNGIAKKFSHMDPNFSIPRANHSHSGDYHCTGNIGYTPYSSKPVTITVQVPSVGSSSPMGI
Method: as §1, §2

[8] = molecular target: T8, human FcγRIIaR extracellular domain, His-tagged (human, UniProt P12318 34-217); assay: SPR (Biacore), 25C, antibody captured, FcgR as analyte
T8 construct: also called human FcgRIIaR; FcγRIIa type R
T8 chain: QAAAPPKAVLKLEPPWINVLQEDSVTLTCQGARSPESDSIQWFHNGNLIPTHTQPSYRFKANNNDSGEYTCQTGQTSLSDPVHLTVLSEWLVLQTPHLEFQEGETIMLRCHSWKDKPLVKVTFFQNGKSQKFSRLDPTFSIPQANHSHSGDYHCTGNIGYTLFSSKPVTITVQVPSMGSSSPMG
Method: (§3) The kinetic analysis of interactions between these antibodies and FcγR was carried out using BIACORE® T200 or BIACORE® 4000 (GE Healthcare). HBS-EP+ (GE Healthcare) was used as the running buffer, and the measurement temperature was set to 25° C. […] After the measurement, the antibody captured on the chip was washed off by allowing reaction with 10 mM glycine-HCl, pH1.5 and 25 mM NaOH so that the chip was regenerated and used repeatedly. The sensorgrams obtained as measurement results were analyzed by the 1:1 Langmuir binding model using the BIACORE® Evaluation Software to calculate the binding rate constant ka (L/mol/s) and dissociation rate constant kd (1/s), and the dissociation constant KD (mol/L) was calculated from these values. […] Regarding such interactions, KD values were calculated using the following 1:1 binding model described in BIACORE® T100 Software Handbook BR1006-48 Edition AE.

[9] = molecular target: T4, cynomolgus monkey FcγRIIa2 …; assay: as above
Method: as §3

[10] = molecular target: T9, human FcγRIIIaV extracellular domain, His-tagged (human, UniProt P08637 17-208); assay: as above
T9 construct: also called human FcgRIIIaV
T9 sequence (P08637 17-208 F176V): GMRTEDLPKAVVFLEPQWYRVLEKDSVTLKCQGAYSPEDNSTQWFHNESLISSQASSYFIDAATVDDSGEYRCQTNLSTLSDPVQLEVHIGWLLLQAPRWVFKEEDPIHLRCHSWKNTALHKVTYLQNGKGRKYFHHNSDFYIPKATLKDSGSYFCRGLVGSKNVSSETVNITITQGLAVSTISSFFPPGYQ
Method: as §3

[11] = molecular target: T10, human FcγRIIb extracellular domain, His-tagged (human, UniProt P31994 43-217); assay: SPR (Biacore), 25C, KD of SG1 / KD of variant
T10 construct: also called human FcgRIIb
T10 sequence: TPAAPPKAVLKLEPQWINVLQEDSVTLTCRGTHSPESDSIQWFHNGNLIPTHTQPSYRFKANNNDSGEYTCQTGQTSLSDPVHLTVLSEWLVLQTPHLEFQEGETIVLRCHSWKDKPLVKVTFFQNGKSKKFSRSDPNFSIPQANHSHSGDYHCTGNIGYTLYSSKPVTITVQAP

[12] = molecular target: T3, cynomolgus monkey FcγRIIb extracellular …; assay: SPR (Biacore), 25C, KD of SG1 / KD of variant
[13] = molecular target: T8, human FcγRIIaR extracellular domain, …; assay: SPR (Biacore), 25C, KD of SG1 / KD of variant
[14] = molecular target: T11, human FcγRIIaH extracellular domain, His-tagged (human, UniProt P12318 34-217); assay: SPR (Biacore), 25C, KD of SG1 / KD of variant
T11 construct: also called human FcgRIIaH; FcγRIIa type H
T11 sequence: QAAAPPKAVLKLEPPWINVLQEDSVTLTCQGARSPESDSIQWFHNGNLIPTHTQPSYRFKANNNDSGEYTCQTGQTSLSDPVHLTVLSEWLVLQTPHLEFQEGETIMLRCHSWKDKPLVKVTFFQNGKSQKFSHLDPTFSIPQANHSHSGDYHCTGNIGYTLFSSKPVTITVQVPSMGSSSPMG

[15] = molecular target: T4, cynomolgus monkey FcγRIIa2 …; assay: SPR (Biacore), 25C, KD of SG1 / KD of variant
[16] = molecular target: T5, cynomolgus monkey FcγRIIa3 …; assay: SPR (Biacore), 25C, KD of SG1 / KD of variant
[17] = molecular target: T6, cynomolgus monkey FcγRIIIaS …; assay: SPR (Biacore), 25C, KD of SG1 / KD of variant
[18] = molecular target: T9, human FcγRIIIaV extracellular domain, …; assay: SPR (Biacore), 25C, KD of SG1 / KD of variant
[19] = molecular target: T7, cynomolgus monkey FcγRIIa1 …; assay: SPR (Biacore), 25C, KD of SG1 / KD of variant
[20] = molecular target: T12, cynomolgus monkey FcγRIIa3 extracellular domain with C-terminal His-tag (cynomolgus monkey); assay: SPR (Biacore), KD of SG1 / KD of variant
T12 construct: also called cyno FcgRIIa3; cynoFcγRIIa3
T12 chain: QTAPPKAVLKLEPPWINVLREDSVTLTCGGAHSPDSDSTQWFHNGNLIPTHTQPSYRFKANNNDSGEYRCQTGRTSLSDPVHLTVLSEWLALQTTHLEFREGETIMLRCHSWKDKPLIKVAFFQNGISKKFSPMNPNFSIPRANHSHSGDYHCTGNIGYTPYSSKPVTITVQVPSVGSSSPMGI

[21] = molecular target: T13, human FcγRIIaR extracellular domain with C-terminal His-tag (human, UniProt P12318 34-217); assay: SPR (Biacore), KD of SG1 / KD of variant
T13 construct: also called human FcgRIIaR; FcγRIIa (type R)
T13 chain: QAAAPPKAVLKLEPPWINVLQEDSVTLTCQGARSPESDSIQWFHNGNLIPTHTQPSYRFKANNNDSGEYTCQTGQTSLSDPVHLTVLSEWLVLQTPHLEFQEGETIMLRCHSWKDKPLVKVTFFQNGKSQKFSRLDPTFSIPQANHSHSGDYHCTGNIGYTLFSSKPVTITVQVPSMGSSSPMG

B1: M103205H795-MY474/M103202L889-SK1 (antibody)
heavy: QVTLKESGPVLVKPTETLTLTCTVSGIDLSHDDISWVRQAPGKGLEWVGIISYAGSTYYASWAKGRLTISKDTSKNQVVLTMTNMDPVDTATYYCARGVPAYSHGGDLWGQGTLVTVSSASTKGPSVFPLAPSSKSTSGGTAALGCLVKDYFPEPVTVSWNSGALTSGVHTFPAVLQSSGLYSLSSVVTVPSSSLGTQTYICNVNHKPSNTKVDKKVEPKSCDKTHTCPPCPVPELLTGPSVFLFPPKPKDTLMISRTPEVTCVVVDVSDEDPEVKFNWYVDGVEVHNAKTKPREEQYNSTYRVVSVLTVLHQDWLNGKEYKCKVSNKALPKPIEKTISKAKGQPREPQVYTLPPSREEMTKNQVSLTCLVKGFYPSDIAVEWESNGQPENNYKTTPPVLDSDGSFFLYSKLTVDKSRWQQGNVFSCSVMHEALHNHYTQKSLSLSP
light: DIVMTQSPATLSLSPGERATLSCTSSQSVYHANWLSWFQQKPGQPPKLLIYWASTLAYGVPSRFSGSGSGTDFTLTISSLQPEDAATYYCAGGYGGGRYAFGQGTKVEIKRTVAAPSVFIFPPSDEQLKSGTASVVCLLNNFYPREAKVQWKVDNALQSGNSQESVTEQDSKDSTYSLSSTLTLSKADYEKHKVYACEVTHQGLSSPVTKSFNRGEC
notes: Substitutions in EU numbering on SG1
Kd [1]: 0.13 µM
KD fold (SG1 = 1) [2]: 2.9 fold

B2: MS1032LO06-SG1 (antibody, human IgG1, kappa)
heavy: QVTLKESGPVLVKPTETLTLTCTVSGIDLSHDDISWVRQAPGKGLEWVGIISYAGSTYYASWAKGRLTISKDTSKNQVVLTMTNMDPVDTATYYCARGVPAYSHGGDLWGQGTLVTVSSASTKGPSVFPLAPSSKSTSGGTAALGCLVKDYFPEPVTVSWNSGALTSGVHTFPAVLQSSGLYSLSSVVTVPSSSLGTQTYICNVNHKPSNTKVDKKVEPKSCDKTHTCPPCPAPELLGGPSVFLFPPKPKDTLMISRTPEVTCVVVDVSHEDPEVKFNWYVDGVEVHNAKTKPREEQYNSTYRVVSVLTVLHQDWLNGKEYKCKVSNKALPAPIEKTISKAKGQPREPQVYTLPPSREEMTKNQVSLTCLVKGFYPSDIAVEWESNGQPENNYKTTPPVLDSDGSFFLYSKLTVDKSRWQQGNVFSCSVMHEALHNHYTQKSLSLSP
light: DIVMTQSPATLSLSPGERATLSCTSSQSVYHANWLSWFQQKPGQPPKLLIYWASTLAYGVPSRFSGSGSGTDFTLTISSLQPEDAATYYCAGGYGGGRYAFGQGTKVEIKRTVAAPSVFIFPPSDEQLKSGTASVVCLLNNFYPREAKVQWKVDNALQSGNSQESVTEQDSKDSTYSLSSTLTLSKADYEKHKVYACEVTHQGLSSPVTKSFNRGEC
notes: Heavy constant region SG1, light constant region SK1; also called M103205H795-SG1
Binding to cynoFcgRs (SG1 = 100) [3]: 100
Binding to cynoFcgRs (SG1 = 100) [4]: 100
Binding to cynoFcgRs (SG1 = 100) [5]: 100
Binding to cynoFcgRs (SG1 = 100) [6]: 100
Binding to cynoFcgRs (SG1 = 100) [7]: 100
Kd [8]: 14 µM
Kd [9]: 52 µM
Kd [10]: 1.2 µM
KD fold (SG1 = 1) [11]: 1
KD fold (SG1 = 1) [12]: 1
KD fold (SG1 = 1) [13]: 1
KD fold (SG1 = 1) [14]: 1
KD fold (SG1 = 1) [15]: 1
KD fold (SG1 = 1) [16]: 1
KD fold (SG1 = 1) [17]: 1
KD fold (SG1 = 1) [18]: 1
KD fold (SG1 = 1) [19]: 1

B3: M103205H795-MY471/M103202L889-SK1 (antibody)
chain 1: QVTLKESGPVLVKPTETLTLTCTVSGIDLSHDDISWVRQAPGKGLEWVGIISYAGSTYYASWAKGRLTISKDTSKNQVVLTMTNMDPVDTATYYCARGVPAYSHGGDLWGQGTLVTVSSASTKGPSVFPLAPSSKSTSGGTAALGCLVKDYFPEPVTVSWNSGALTSGVHTFPAVLQSSGLYSLSSVVTVPSSSLGTQTYICNVNHKPSNTKVDKKVEPKSCDKTHTCPPCPRPELLTGPSVFLFPPKPKDTLMISRTPEVTCVVVDVSDEDPEVKFNWYVDGVEVHNAKTKPREEQYNSTYRVVSVLTVLHQDWLNGKEYKCKVSNKALPKPIEKTISKAKGQPREPQVYTLPPSREEMTKNQVSLTCLVKGFYPSDIAVEWESNGQPENNYKTTPPVLDSDGSFFLYSKLTVDKSRWQQGNVFSCSVMHEALHNHYTQKSLSLSP
chain 2: DIVMTQSPATLSLSPGERATLSCTSSQSVYHANWLSWFQQKPGQPPKLLIYWASTLAYGVPSRFSGSGSGTDFTLTISSLQPEDAATYYCAGGYGGGRYAFGQGTKVEIKRTVAAPSVFIFPPSDEQLKSGTASVVCLLNNFYPREAKVQWKVDNALQSGNSQESVTEQDSKDSTYSLSSTLTLSKADYEKHKVYACEVTHQGLSSPVTKSFNRGEC
KD fold (SG1 = 1) [20]: 3.5 fold
KD fold (SG1 = 1) [2]: 1.6 fold
KD fold (SG1 = 1) [21]: 2.3 fold
